In this data set the target is coreTFIIH (7-subunit: XPB, XPD, p62, p52, p44, p34, p8);XPG (human;human) (UniProt P19447+P18074+P32780+Q92759+Q13888+Q13889+Q6ZYL4+P28715). Briefly: EMSA. Background: Mobility shift assays separate free from complexed probe on a gel.

Where the note is “cholesterol moiety at N (between S10 and S11), position 4 from ss/ds junction”, “TTTTTTTTTTTTTTTTTTTTTTTTTTTTTTTTTTTTNTTTGCCTCGCTGCCGTCGCCA / TGGCGACGGCAGCGAGGC [Chol4]” gave a binding signal (fold lower Kd than XPG alone) of 7. As for “TTTTTTTTTTTTTTTTTTTTTTTTTTTTTNTTTTTTTTTTGCCTCGCTGCCGTCGCCA / TGGCGACGGCAGCGAGGC [Chol11]”, the binding signal (fold lower Kd than XPG alone) (cholesterol moiety at N (between S12 and S13), position 11 from ss/ds junction) stood at 8.

The record behind these values is PMC9943652.
